Measured values reported in patent US20250361312A1 (INVOX PHARMA, published 2025).
Read-outs that look alike come from different tables or passages of the source. Blank lines part the entries; values can stand above or below the binder they belong to.

Columns and labels:
[1] = biological target: T1, mouse OX40 receptor, cell-expressed (DO11.10-mOX40) (mouse, UniProt P47741 20-272); assay: cell-based or functional assay
T1 sequence: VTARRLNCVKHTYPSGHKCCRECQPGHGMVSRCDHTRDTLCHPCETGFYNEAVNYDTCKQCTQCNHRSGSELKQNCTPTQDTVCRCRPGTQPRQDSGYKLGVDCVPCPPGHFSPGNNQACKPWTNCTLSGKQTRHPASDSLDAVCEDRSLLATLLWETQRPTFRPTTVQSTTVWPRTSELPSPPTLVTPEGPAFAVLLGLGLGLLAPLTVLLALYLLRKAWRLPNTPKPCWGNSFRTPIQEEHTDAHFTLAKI

[2] = biological target: T1, mouse OX40 receptor, cell-expressed …; assay: cell-based or functional assay; remark: listed apart in the source
[3] = biological target: T1, mouse OX40 receptor, cell-expressed …; assay: flow cytometry on DO11.10-mOX40 cells
Protocol: Non-specific binding was also assessed by testing for binding to HEK cells not expressing OX40 by flow cytometry.
DO11.10 mOX40 or HEK cell suspensions were prepared in PBS+2% BSA (Sigma, A7906) and seeded at 4×10⁶ cell/ml with 50 μl/well in V-bottomed 96-well plates (Costar, 3897). […] The data was fit using log (agonist) vs response in GraphPad Prism Software.

[4] = biological target: T1, mouse OX40 receptor, cell-expressed …; assay: cell-based or functional assay; remark: listed apart in the source
[5] = biological target: T1, mouse OX40 receptor, cell-expressed …; assay: cell-based or functional assay; remark: listed apart in the source
[6] = biological target: T2, mouse TNFRII (mouse, UniProt P25119 23-258, limits assumed); assay: SPR (Biacore T200), receptor on CM5 chip
T2 construct: Amine-coupled to a CM5 chip
T2 sequence (looked up): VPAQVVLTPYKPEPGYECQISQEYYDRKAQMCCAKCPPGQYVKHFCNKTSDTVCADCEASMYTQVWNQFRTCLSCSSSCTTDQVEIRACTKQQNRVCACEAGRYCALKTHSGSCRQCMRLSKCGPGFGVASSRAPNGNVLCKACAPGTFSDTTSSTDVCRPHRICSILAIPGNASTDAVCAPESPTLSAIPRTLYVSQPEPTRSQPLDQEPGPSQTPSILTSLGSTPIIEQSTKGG

[7] = biological target: T3, mouse CD137 (mouse, UniProt P20334 24-187, limits assumed); assay: SPR (Biacore T200), receptor on CM5 chip
T3 construct: Amine-coupled to a CM5 chip; also called 4-1BB
T3 sequence (looked up): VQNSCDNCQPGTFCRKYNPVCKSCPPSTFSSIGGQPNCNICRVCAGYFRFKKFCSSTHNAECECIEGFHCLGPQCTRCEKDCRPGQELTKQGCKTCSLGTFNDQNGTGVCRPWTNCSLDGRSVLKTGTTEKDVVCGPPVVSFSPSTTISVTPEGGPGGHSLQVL

[8] = biological target: T4, mouse CD40 (mouse, UniProt P27512 24-193, limits assumed); assay: SPR (Biacore T200), receptor on CM5 chip
T4 construct: Amine-coupled to a CM5 chip
T4 sequence (looked up): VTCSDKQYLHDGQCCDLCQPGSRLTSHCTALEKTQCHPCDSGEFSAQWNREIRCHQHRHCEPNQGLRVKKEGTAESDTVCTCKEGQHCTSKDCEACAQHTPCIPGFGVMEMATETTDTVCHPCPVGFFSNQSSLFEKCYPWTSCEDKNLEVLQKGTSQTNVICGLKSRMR

[9] = biological target: T5, mouse TNFRI (mouse, UniProt P25118 22-212, limits assumed); assay: SPR (Biacore T200), receptor on CM5 chip
T5 construct: Amine-coupled to a CM5 chip
T5 sequence (looked up): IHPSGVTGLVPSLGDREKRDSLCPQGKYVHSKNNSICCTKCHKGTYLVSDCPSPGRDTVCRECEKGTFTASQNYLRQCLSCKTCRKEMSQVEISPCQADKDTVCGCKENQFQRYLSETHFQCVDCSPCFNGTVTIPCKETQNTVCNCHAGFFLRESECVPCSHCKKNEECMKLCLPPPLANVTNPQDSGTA

[10] = biological target: T6, mouse NGFR (mouse, UniProt Q9Z0W1 32-254, limits assumed); assay: SPR (Biacore T200), receptor on CM5 chip
T6 construct: Amine-coupled to a CM5 chip
T6 sequence (looked up): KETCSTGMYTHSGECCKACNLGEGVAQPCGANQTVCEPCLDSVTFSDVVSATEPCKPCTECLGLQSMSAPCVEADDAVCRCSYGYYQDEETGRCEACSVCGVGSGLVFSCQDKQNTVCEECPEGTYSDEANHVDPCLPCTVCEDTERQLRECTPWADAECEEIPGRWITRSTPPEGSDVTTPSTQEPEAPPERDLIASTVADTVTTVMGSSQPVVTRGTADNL

[11] = biological target: T1, mouse OX40 receptor, cell-expressed …; assay: flow cytometry, labelled antibody on DO11.10-mOX40 cells

EC50 of IL-2 release, HPAC cells present, + FITCdex [1]: 0.548 nM
EC50 of IL-2 release, HPAC cells present, + G1/E2A + a-hFc + FITCdex [1]: 2.09 nM
EC50 of IL-2 release, Xlink (FITC-dextran) [2]: 0.629 nM
EC50 [3]: 1.01 nM
EC50 of IL-2 release, crosslinked (FITC-dextran) [4]: 0.67 nM
EC50 of IL-2 release, Xlink (FITC-dextran) [5]: 0.158 nM
EC50 of IL-2 release, no crosslinker [5]: 76.4 nM
B1: FS20m-232-91AA/4420 (bispecific antibody, human IgG1, kappa, L234A L235A)
heavy: EVKLDETGGGLVQPGRPMKLSCVASGFTFSDYWMNWVRQSPEKGLEWVAQIRNKPYNYETYYSDSVKGRFTISRDDSKSSVYLQMNNLRVEDMGIYYCTGSYYGMDYWGQGTSVTVSSASTKGPSVFPLAPSSKSTSGGTAALGCLVKDYFPEPVTVSWNSGALTSGVHTFPAVLQSSGLYSLSSVVTVPSSSLGTQTYICNVNHKPSNTKVDKKVEPKSCDKTHTCPPCPAPEAAGGPSVFLFPPKPKDTLMISRTPEVTCVVVDVSHEDPEVKFNWYVDGVEVHNAKTKPREEQYNSTYRVVSVLTVLHQDWLNGKEYKCKVSNKALPAPIEKTISKAKGQPREPQVYTLPPSRDELFDPMYYYNQVSLTCLVKGFYPSDIAVEWESNGEPLWDYKTTPPVLDSDGSFFLYSKLTVWRDRWEDGNVFSCSVMHEALHNHYTQKSLSLSPG
light: DVVMTQTPLSLPVSLGDQASISCRSSQSLVHSNGNTYLRWYLQKPGQSPKVLIYKVSNRFSGVPDRFSGSGSGTDFTLKISRVEAEDLGVYFCSQSTHVPWTFGGGTKLEIKRTVAAPSVFIFPPSDEQLKSGTASVVCLLNNFYPREAKVQWKVDNALQSGNSQESVTEQDSKDSTYSLSSTLTLSKADYEKHKVYACEVTHQGLSSPVTKSFNRGEC
notes: Human IgG1 with anti-FITC 4420 Fab and LALA; The mouse OX40 site is in the CH3 domain; also called mFS20-232-91AA/4420; anti-mouse OX40 Fcab FS20m-232-91 in mock (4420 LALA) mAb^2 format

binding result [6]: no binding (tested: 1 µM)
binding result [7]: no binding (tested: 1 µM)
binding result [8]: no binding (tested: 1 µM)
binding result [9]: no binding (tested: 1 µM)
binding result [10]: no binding (tested: 1 µM)
B2: FS20m-232-91AA/HEL D1.3 (bispecific antibody, human IgG1, kappa, L234A L235A, V domains shown)
VH: QVQLQESGPGLVRPSQTLSLTCTVSGSTFSGYGVNWVRQPPGRGLEWIGMIWGDGNTDYNSALKSRVTMLVDTSKNQFSLRLSSVTAADTAVYYCARERDYRLDYWGQGSLVTVSS
VL: DIQMTQSPASLSASVGETVTITCRASGNIHNYLAWYQQKQGKSPQLLVYNAKTLADGVPSRFSGSGSGTQYSLKINSLQPEDFGSYYCQHFWSTPRTFGGGTKLEIKR
notes: Human IgG1 with anti-HEL D1.3 Fab and LALA; also called FS20m-232-91 in mock (HEL D1.3 LALA) mAb^2 format; FS20m-232-91/HelD1.3 mock mAb^2 with LALA mutation

EC50 [3]: 3.1 nM
EC50 of IL-2 release, crosslinked (anti-human CH2 mAb) [4]: 1.75 nM
EC50 of IL-2 release, Xlink (anti-hCH2) [5]: 0.463 nM
B3: G1AA/OX86 (antibody, human IgG1, kappa, L234A L235A, V domains shown)
VH: QVQLKESGPGLVQPSQTLSLTCTVSGFSLTGYNLHWVRQPPGKGLEWMGRMRYDGDTYYNSVLKSRLSISRDTSKNQVFLKMNSLQTDDTAIYYCTRDGRGDSFDYWGQGVMVTVSS
VL: DIVMTQGALPNPVPSGESASITCRSSQSLVYKDGQTYLNWFLQRPGQSPQLLTYWMSTRASGVSDRFSGSGSGTYFTLKISRVRAEDAGVYYCQQVREYPFTFGSGTKLEIKR
notes: also called anti-mouse OX40 mAb OX86 in a human IgG1 backbone with the LALA mutation

fluorescence over non-transduced cells [11]: ≥ 10 fold
B4: antibody OX86 (Biolegend cat no 119408) (antibody, V domains shown)
VH: QVQLKESGPGLVQPSQTLSLTCTVSGFSLTGYNLHWVRQPPGKGLEWMGRMRYDGDTYYNSVLKSRLSISRDTSKNQVFLKMNSLQTDDTAIYYCTRDGRGDSFDYWGQGVMVTVSS
VL: DIVMTQGALPNPVPSGESASITCRSSQSLVYKDGQTYLNWFLQRPGQSPQLLTYWMSTRASGVSDRFSGSGSGTYFTLKISRVRAEDAGVYYCQQVREYPFTFGSGTKLEIK
